# Measured values reported in paper PMC314469, “Protein Interaction Networks by Proteome Peptide Scanning” (PLoS Biology, 2004).
# T1: amphyphisin SH3 (AMPH_HUMAN), P49418
# T1 chain: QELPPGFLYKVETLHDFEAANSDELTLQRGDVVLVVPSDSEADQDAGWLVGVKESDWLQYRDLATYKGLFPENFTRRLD
# Columns and labels:
# [1] = biological target: T1, amphyphisin SH3 (AMPH_HUMAN), P49418; assay: SPOT array
# [2] = biological target: endophilin SH3 (SH3G2_HUMAN), Q99962; assay: SPOT array
"normalised SPOT signal, Boehringer light units (BLU); mean over the file's lines of this peptide [1]","normalised SPOT signal, Boehringer light units (BLU); mean over the file's lines of this peptide [2]",Binder
6100,224,LIRTFQRPDRVELM [Q9UMF0 113-126]
1740,3730,LIRFLPRPIRQQLL [Q12789 943-956]
28.2,13.3,LLYLPLKPPNMFPS [Q9H799 457-471]
183,3260,LLMVPRRPGYGAMG [Q9H9G7 14-27]
5020,3500,LLPALRRPSRASSA [O95327 190-203]
16800,34600,LGQKPQRPRRPASP [P07360 19-32]
443,85,LLNTLKRPKRPPLK [Q96NX2 21-34]
65.2,41.8,LGPVPHRPPFEPGS [P54259 848-862]
54.9,537,LLFSLRRPSSTVTM [Q96SW7 100-113]
28.6,568,LLSWIKRPSQRALR [Q9P145 28-41]
178,9850,LLPFPLRPPSPHSP [Q9HAF8 97-111]
33.1,145,APPELRRPSHLHTS [Q8WU02 149-162]
51.2,1340,LLLGIRRPEFLSRP [Q9NWT5 57-70]
29.9,6.9,LLEQILRPSKFLTY [Q9P0V3 740-753]
3510,391,LHESFPRPKRVSKD [P42568 55-68]
90.2,87.4,LLIIISRPARLLES [O60307 271-284]
28.8,69,LKVQLKRPKDANRP [Q9NR84 149-162]
46.5,169,LIQELRRPKYSIYF [Q15715 82-95]
336,614,LLGPFRRPTTQLRA [P25100 499-512]
2610,1090,LKVWPPRPGRWPSF [Q9NQQ2 431-444]
103,3240,LLPGPGRPPPPPTK [Q9UJJ7 274-288]

"normalised SPOT signal, Boehringer light units (BLU); mean over the file's lines of this peptide [1]","normalised SPOT signal, Boehringer light units (BLU); mean over the file's lines of this peptide [2]",Binder
1060,3500,LILPPPRPPLAVTS [O60241 813-827]
193,128,LHVQLNRPNKRNAM [Q13011 68-81]
121,192,LKGIFTRPSKLTRK [P30622 114-127]
188,80.4,LLEPPERPYRDREP [Q9HCM7 689-702]
5.8,55.3,LKEILKRPVDPIRA [O43630 494-507]
269,14800,LGRLPSRPPLPGSG [Q9Y570 9-23]
856,3870,APPPPSRPPQPRPG [Q9NRK3 42-56]
87,1540,LLLHPRRPRLHPGT [O95141 51-64]
33.4,81.8,LGPVPVRPPPGPEL [Q9Y5L9 821-835]
238,3650,LKAPPARPVKGAYR [Q99760 384-397]
41.8,47.1,LLDTIKRPALQGLS [Q9P2D8 4-17]
49.4,596,LHLVIRRPLETHPG [Q9H6Y5 142-155]
38.4,300,LGLSFRRPNVITLL [Q9ULA1 146-159]
159,89.6,LLLLLYRPPRYQIA [O60725 54-67]
4490,2280,APPLPVRPPKTSPG [Q96FN5 451-465]
816,1280,LLMVPRRPGYGTMG [Q96JZ0 14-27]
873,1430,LLLPPPRPPHSDIT [Q9H6X1 45-59]
204,0,LLSQLGRPFREYEL [Q9C095 450-463]
3240,638,APPQIRRPNREVRP [Q9BW62 109-122]
218,246,LHGRPYRPPSPPPP [O75593 148-162]
45.3,268,LLGKPKRPRSAYNV [Q00059 151-164]
